From article PMC11199706

Key:
[1] = biological target: NOPLight (human (NOPR part)); assay: fluorescence response of the sensor in acute brain slices (off kinetics); NOPLight expressed in mouse brain (AAV), slices at 31 °C in aCSF, 50 nL of N/OFQ at 10, 50 or 500 nM puffed onto the slice
[2] = biological target: NOPLight (human (NOPR part)); assay: other fluorescence titration; apparent; NOPLight on AAV-transduced cultured rat cortical neurons in HBSS, N/OFQ applied manually during confocal imaging (20x), normalised ΔF/F0 fitted with a three-parameter Hill equation
[3] = biological target: NOPLight (human (NOPR part)); assay: fluorescence response of the sensor on cells (wash-off kinetics); NOPLight on HEK293T cells under constant perfusion with 37 °C HBSS, about 50 nL of 100 µM N/OFQ puffed onto the cells, mono-exponential decay fit
[4] = biological target: NOPLight (human (NOPR part)); assay: fluorescence response of the sensor in acute brain slices; NOPLight expressed in the mouse arcuate nucleus (AAV), coronal slices perfused with aCSF pH 7.2, increasing N/OFQ (5 nM to 10 µM) bath-applied for 10 min each
[5] = biological target: NOPLight (human (NOPR part)); assay: other fluorescence titration; apparent; NOPLight on transfected HEK293T cells in HBSS, N/OFQ applied manually during confocal imaging (20x), normalised ΔF/F0 fitted with a three-parameter Hill equation
[6] = biological target: NOPLight (human (NOPR part)); assay: fluorescence response of the sensor on cells (confocal imaging); sensor on AAV-transduced cultured rat cortical neurons in HBSS, 1 µM N/OFQ, ΔF/F0 of membrane pixels
[7] = biological target: NOPLight (human (NOPR part)); assay: fluorescence response of the sensor on cells (line-scan confocal imaging, kinetics); NOPLight on HEK293T cells, 37 °C, N/OFQ applied in bolus with Red-Dextran dye, line scan at 800 Hz, mono-exponential association fit
[8] = biological target: NOPLight (human (NOPR part)); assay: fluorescence response of the sensor on cells (confocal imaging); sensor on transfected HEK293T cells in HBSS, ligand pipetted in at one concentration (1 µM where stated), ΔF/F0 of membrane pixels
[9] = biological target: NOPLight (human (NOPR part)); assay: fluorescence response of the sensor on cells (wash-off kinetics); NOPLight on HEK293T cells on coverslips, 37 °C HBSS, 500 nM N/OFQ bath-applied, perfusion turned on after 30 s, mono-exponential decay fit

τoff at 10 nM N/OFQ [1]: 30.9 s | τoff at 50 nM N/OFQ [1]: 41.1 s | τoff at 500 nM N/OFQ [1]: 53.1 s | EC50 [2]: 42.8 nM | τoff (localized puff application) [3]: 29.9 s | ΔF/F0 at 10 nM N/OFQ [4]: 1.9% | ΔF/F0 at 10 µM N/OFQ [4]: 73% | EC50 [5]: 28.6 nM | ΔF/F0 upon N/OFQ (1 µM) [6]: 378% | τON (time constant of signal activation) [7]: 595 ms | ΔF/F0 upon N/OFQ (1 µM) [8]: 388% | τoff (bath application) [9]: 57.1 s
B1: nociceptin/orphanin-FQ peptide (peptide)
peptide: FGGFTGARKSARKLANQ
